Experiment [1] addresses HLA-DR2b (DRA, DRB1*1501), soluble, thrombin-cleaved DR/CLIP complex (human).
The target of experiment [2] is HLA-DR1 (DRA, DRB1*0101), soluble, thrombin-cleaved DR/CLIP complex (human).

HIV p24 (1-22) peptide: the half-maximal inhibitory concentration (IC50) – broadly, the concentration needed to halve the response being measured – in experiment [1] amounted to 8 µM.

With HIV p24 (51-72) peptide, the half-maximal inhibitory concentration (IC50) in experiment [1] turned out to be 10.8 µM.

Take HIV p24 (111-132) peptide: the IC50 in experiment [1] turned out to be 10.8 µM.

HIV p24 (161-182) peptide registered an IC50 in experiment [1] of 9 µM.

As to HIV p24 (171-192) peptide, the half-maximal inhibitory concentration (IC50) in experiment [1] came to 0.9 µM.

HIV p24 (191-212) peptide: the IC50 in experiment [2] was 1.6 µM; in experiment [1], 3 µM.

The values above are taken from patent US20040197862A1.
